Earlier results on one substance are cited in US11878064B2, “Nanoparticle/peptide method of blocking potassium channels” (US Department of the Navy, priority 2019, dated 2024).

The target of the series is T1, ROMK1 channels (Homo sapiens, UniProt P48048).
T1 sequence (P48048 1-391): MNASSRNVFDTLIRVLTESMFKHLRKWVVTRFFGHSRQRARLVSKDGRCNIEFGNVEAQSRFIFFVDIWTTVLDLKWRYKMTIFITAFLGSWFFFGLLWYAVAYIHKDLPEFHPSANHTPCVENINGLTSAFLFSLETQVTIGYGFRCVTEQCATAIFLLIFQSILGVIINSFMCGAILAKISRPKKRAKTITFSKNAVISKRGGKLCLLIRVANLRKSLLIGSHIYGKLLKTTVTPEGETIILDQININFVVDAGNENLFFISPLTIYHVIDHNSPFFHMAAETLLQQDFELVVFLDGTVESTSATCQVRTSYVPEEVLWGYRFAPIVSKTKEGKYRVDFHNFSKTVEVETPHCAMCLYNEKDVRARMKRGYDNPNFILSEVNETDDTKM
The settings on record: read-out: binding affinity.

pKd: −log10 of the molar value. Where no end group is shown, it is not given here.

Consider “tertiapin (ALCNCNRIIIPHMCWKKCGKK; ends and bridges not checked; cysteine pairing not given here; UniProt P56587 1-21, looked up) [TPN]”, for which the pKd was ~8.70.
